Sequences and labels used below:
B1: PIP5K1C peptide 642-657 (Phosphatidylinositol 4-phosphate 5-kinase type-1 gamma), 16-mer library wild type / TLN1 PTB (TLN1 Phosphotyrosine-binding (PTB) domain, residues 309-401) (parent complex)
chain 1: TDERSWVYSPLHYSAQ
chain 2: GVSFFLVKEKMKGKNKLVPRLLGITKECVMRVDEKTKEVIQEWNLTNIKRWAASPKSFTLDFGDYQDGYYSVQTTEGEQIAQLIAGYIDIILK

This assay covers variants of B1. The assay is described as follows: proteomic peptide phage display deep mutational scan (ProP-PD DMS): M13 P8 16-mer library selected against immobilised GST-tagged bait for four days (rounds), NGS of the eluted pools per day and pseudo-replica; bait immobilised on MaxiSorp plates (10 µg), library pre-cleared on GST, 2 h binding at 4 °C, five washes; one round per day, days 1-4; value from days 2 and 3.
Turning to chain 1 V7H, the screen value was 0.000523 average fractional NGS count over selection days 2 and 3 (reads of this peptide / all reads for the bait, averaged over ….

Turning to chain 1 V7Y, the screen value is 0.00645 average fractional NGS count over selection days 2 and 3 (reads of this peptide / all reads for the bait, averaged over ….

On to chain 1 P10E, for which the screen value is 0.000515 average fractional NGS count over selection days 2 and 3 (reads of this peptide / all reads for the bait, averaged over ….

For chain 1 P10T, the screen value is 0.00133 average fractional NGS count over selection days 2 and 3 (reads of this peptide / all reads for the bait, averaged over ….

Turning to chain 1 P10R, the screen value was 0.000767 average fractional NGS count over selection days 2 and 3 (reads of this peptide / all reads for the bait, averaged over ….

Turning to chain 1 P10H, the screen value was 0.00282 average fractional NGS count over selection days 2 and 3 (reads of this peptide / all reads for the bait, averaged over ….

Regarding chain 1 P10F, the screen value is 0.0019 average fractional NGS count over selection days 2 and 3 (reads of this peptide / all reads for the bait, averaged over ….

Regarding chain 1 P10A, the screen value is 0.00236 average fractional NGS count over selection days 2 and 3 (reads of this peptide / all reads for the bait, averaged over ….

For the variant chain 1 P10M, the screen value was 0.00123 average fractional NGS count over selection days 2 and 3 (reads of this peptide / all reads for the bait, averaged over ….

As to chain 1 P10K, the screen value was 0.00642 average fractional NGS count over selection days 2 and 3 (reads of this peptide / all reads for the bait, averaged over ….

For the variant chain 1 P10Y, the screen value was 0.000349 average fractional NGS count over selection days 2 and 3 (reads of this peptide / all reads for the bait, averaged over ….

For the variant chain 1 P10D, the screen value was 0.00117 average fractional NGS count over selection days 2 and 3 (reads of this peptide / all reads for the bait, averaged over ….

With chain 1 P10Q, the screen value was 0.001 average fractional NGS count over selection days 2 and 3 (reads of this peptide / all reads for the bait, averaged over ….

chain 1 P10L: the screen value is 0.00637 average fractional NGS count over selection days 2 and 3 (reads of this peptide / all reads for the bait, averaged over ….

In the case of chain 1 H12Q, the screen value was 0.0044 average fractional NGS count over selection days 2 and 3 (reads of this peptide / all reads for the bait, averaged over ….

For the variant chain 1 H12T, the screen value is 0.00303 average fractional NGS count over selection days 2 and 3 (reads of this peptide / all reads for the bait, averaged over ….

For chain 1 H12G, the screen value was 0.00249 average fractional NGS count over selection days 2 and 3 (reads of this peptide / all reads for the bait, averaged over ….

Regarding chain 1 H12M, the screen value is 0.0016 average fractional NGS count over selection days 2 and 3 (reads of this peptide / all reads for the bait, averaged over ….

As to chain 1 H12P, the screen value is 0.00102 average fractional NGS count over selection days 2 and 3 (reads of this peptide / all reads for the bait, averaged over ….

Turning to chain 1 H12D, the screen value was 0.00129 average fractional NGS count over selection days 2 and 3 (reads of this peptide / all reads for the bait, averaged over ….

Regarding chain 1 H12W, the screen value is 0.000302 average fractional NGS count over selection days 2 and 3 (reads of this peptide / all reads for the bait, averaged over ….

chain 1 H12K: the screen value was 0.000275 average fractional NGS count over selection days 2 and 3 (reads of this peptide / all reads for the bait, averaged over ….

As for chain 1 H12F, the screen value was 0.00153 average fractional NGS count over selection days 2 and 3 (reads of this peptide / all reads for the bait, averaged over ….

For chain 1 H12N, the screen value was 0.00503 average fractional NGS count over selection days 2 and 3 (reads of this peptide / all reads for the bait, averaged over ….

Turning to chain 1 H12A, the screen value is 0.00137 average fractional NGS count over selection days 2 and 3 (reads of this peptide / all reads for the bait, averaged over ….

Regarding chain 1 H12V, the screen value is 0.00311 average fractional NGS count over selection days 2 and 3 (reads of this peptide / all reads for the bait, averaged over ….

Consider chain 1 T1W, for which the screen value is 0.00109 average fractional NGS count over selection days 2 and 3 (reads of this peptide / all reads for the bait, averaged over ….

Consider chain 1 T1K, for which the screen value was 0.001 average fractional NGS count over selection days 2 and 3 (reads of this peptide / all reads for the bait, averaged over ….

With chain 1 T1L, the screen value is 0.000574 average fractional NGS count over selection days 2 and 3 (reads of this peptide / all reads for the bait, averaged over ….

For chain 1 T1G, the screen value was 0.00259 average fractional NGS count over selection days 2 and 3 (reads of this peptide / all reads for the bait, averaged over ….

For the variant chain 1 T1N, the screen value is 0.00021 average fractional NGS count over selection days 2 and 3 (reads of this peptide / all reads for the bait, averaged over ….

Turning to chain 1 T1I, the screen value is 0.000851 average fractional NGS count over selection days 2 and 3 (reads of this peptide / all reads for the bait, averaged over ….

For chain 1 T1F, the screen value was 0.0018 average fractional NGS count over selection days 2 and 3 (reads of this peptide / all reads for the bait, averaged over ….

As to chain 1 T1D, the screen value was 0.00201 average fractional NGS count over selection days 2 and 3 (reads of this peptide / all reads for the bait, averaged over ….

As to chain 1 T1E, the screen value was 0.00477 average fractional NGS count over selection days 2 and 3 (reads of this peptide / all reads for the bait, averaged over ….

On to chain 1 T1V, for which the screen value was 0.00105 average fractional NGS count over selection days 2 and 3 (reads of this peptide / all reads for the bait, averaged over ….

In the case of chain 1 T1H, the screen value was 0.000767 average fractional NGS count over selection days 2 and 3 (reads of this peptide / all reads for the bait, averaged over ….

For chain 1 D2F, the screen value was 0.00154 average fractional NGS count over selection days 2 and 3 (reads of this peptide / all reads for the bait, averaged over ….

In the case of chain 1 D2H, the screen value is 0.0024 average fractional NGS count over selection days 2 and 3 (reads of this peptide / all reads for the bait, averaged over ….

For chain 1 D2V, the screen value is 0.00155 average fractional NGS count over selection days 2 and 3 (reads of this peptide / all reads for the bait, averaged over ….

For chain 1 D2A, the screen value was 0.0142 average fractional NGS count over selection days 2 and 3 (reads of this peptide / all reads for the bait, averaged over ….

chain 1 D2L: the screen value was 0.0016 average fractional NGS count over selection days 2 and 3 (reads of this peptide / all reads for the bait, averaged over ….

As to chain 1 D2I, the screen value is 0.000155 average fractional NGS count over selection days 2 and 3 (reads of this peptide / all reads for the bait, averaged over ….

Regarding chain 1 D2R, the screen value is 0.00137 average fractional NGS count over selection days 2 and 3 (reads of this peptide / all reads for the bait, averaged over ….

For chain 1 D2Y, the screen value is 0.000691 average fractional NGS count over selection days 2 and 3 (reads of this peptide / all reads for the bait, averaged over ….

In the case of chain 1 D2M, the screen value is 0.000501 average fractional NGS count over selection days 2 and 3 (reads of this peptide / all reads for the bait, averaged over ….

Turning to chain 1 D2W, the screen value was 0.0007 average fractional NGS count over selection days 2 and 3 (reads of this peptide / all reads for the bait, averaged over ….

With chain 1 D2E, the screen value was 0.00176 average fractional NGS count over selection days 2 and 3 (reads of this peptide / all reads for the bait, averaged over ….

As for chain 1 D2S, the screen value was 0.00166 average fractional NGS count over selection days 2 and 3 (reads of this peptide / all reads for the bait, averaged over ….

For the variant chain 1 S14G, the screen value is 0.000766 average fractional NGS count over selection days 2 and 3 (reads of this peptide / all reads for the bait, averaged over ….

For chain 1 S14V, the screen value was 0.0171 average fractional NGS count over selection days 2 and 3 (reads of this peptide / all reads for the bait, averaged over ….

Consider chain 1 S14M, for which the screen value was 0.00342 average fractional NGS count over selection days 2 and 3 (reads of this peptide / all reads for the bait, averaged over ….

With chain 1 S14Y, the screen value was 0.00168 average fractional NGS count over selection days 2 and 3 (reads of this peptide / all reads for the bait, averaged over ….

For chain 1 S14R, the screen value is 0.000219 average fractional NGS count over selection days 2 and 3 (reads of this peptide / all reads for the bait, averaged over ….

As to chain 1 S14Q, the screen value was 0.00119 average fractional NGS count over selection days 2 and 3 (reads of this peptide / all reads for the bait, averaged over ….

In the case of chain 1 S14F, the screen value was 0.00254 average fractional NGS count over selection days 2 and 3 (reads of this peptide / all reads for the bait, averaged over ….

Take chain 1 S14H: the screen value was 0.00391 average fractional NGS count over selection days 2 and 3 (reads of this peptide / all reads for the bait, averaged over ….

On to chain 1 S14W, for which the screen value was 0.00882 average fractional NGS count over selection days 2 and 3 (reads of this peptide / all reads for the bait, averaged over ….

As to chain 1 S14T, the screen value was 0.012 average fractional NGS count over selection days 2 and 3 (reads of this peptide / all reads for the bait, averaged over ….

Turning to chain 1 L11F, the screen value was 0.000354 average fractional NGS count over selection days 2 and 3 (reads of this peptide / all reads for the bait, averaged over ….

For chain 1 L11H, the screen value is 0.000309 average fractional NGS count over selection days 2 and 3 (reads of this peptide / all reads for the bait, averaged over ….

As to chain 1 L11T, the screen value is 0.00178 average fractional NGS count over selection days 2 and 3 (reads of this peptide / all reads for the bait, averaged over ….

Consider chain 1 L11R, for which the screen value is 0.00065 average fractional NGS count over selection days 2 and 3 (reads of this peptide / all reads for the bait, averaged over ….

For chain 1 L11Y, the screen value is 0.000186 average fractional NGS count over selection days 2 and 3 (reads of this peptide / all reads for the bait, averaged over ….

In the case of chain 1 L11V, the screen value is 0.00105 average fractional NGS count over selection days 2 and 3 (reads of this peptide / all reads for the bait, averaged over ….

Regarding chain 1 L11E, the screen value was 0.000382 average fractional NGS count over selection days 2 and 3 (reads of this peptide / all reads for the bait, averaged over ….

On to chain 1 L11I, for which the screen value was 0.00188 average fractional NGS count over selection days 2 and 3 (reads of this peptide / all reads for the bait, averaged over ….

Consider chain 1 L11A, for which the screen value is 0.000511 average fractional NGS count over selection days 2 and 3 (reads of this peptide / all reads for the bait, averaged over ….

On to chain 1 A15M, for which the screen value is 0.00017 average fractional NGS count over selection days 2 and 3 (reads of this peptide / all reads for the bait, averaged over ….

For chain 1 A15P, the screen value is 0.00282 average fractional NGS count over selection days 2 and 3 (reads of this peptide / all reads for the bait, averaged over ….

With chain 1 A15L, the screen value is 0.00142 average fractional NGS count over selection days 2 and 3 (reads of this peptide / all reads for the bait, averaged over ….

Regarding chain 1 A15I, the screen value is 0.000328 average fractional NGS count over selection days 2 and 3 (reads of this peptide / all reads for the bait, averaged over ….

As to chain 1 A15D, the screen value was 0.00285 average fractional NGS count over selection days 2 and 3 (reads of this peptide / all reads for the bait, averaged over ….

As for chain 1 A15G, the screen value was 0.000489 average fractional NGS count over selection days 2 and 3 (reads of this peptide / all reads for the bait, averaged over ….

Consider chain 1 A15S, for which the screen value is 0.001 average fractional NGS count over selection days 2 and 3 (reads of this peptide / all reads for the bait, averaged over ….

The values above are taken from PMC12102759 (2025).
